Measured values: the supplement of paper PMC9112550, “Optimization of the antimicrobial peptide Bac7 by deep mutational scanning” (BMC Biology, 2022)

What follows are sequences tested on Escherichia coli TOP10 (assay: shrunken log2 fold change of peptide-encoding DNA abundance (4.5 h post-induction vs induction); higher = less antimicrobial activity (less host growth inhibition)). Conditions: time post-induction: 4.5 h; library: site-saturation at positions 5, 18, 19, 20.
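Further: peptides expressed intracellularly from a pBAD plasmid library in pooled LB shake-flask culture, induced with 0.3% L-arabinose, DNA abundance read by NGS, three biological replicates, DESeq2 with apeglm shrinkage.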

Question: For RRIRIRPPRLPRPRPRPNPMPRP, which “shrunken log2 fold change” value is on record?
Answer: Its value is -0.169.

Question: How did the “shrunken log2 fold change” value turn out when RRIRIRPPRLPRPRPRPNPVPRP was run?
Answer: Its value is 0.087.

Question: Which “shrunken log2 fold change” value does the source give for RRIRIRPPRLPRPRPRPNRAPRP here?
Answer: The value was 1.1.

Question: For RRIRIRPPRLPRPRPRPNSMPRP, which “shrunken log2 fold change” value is on record?
Answer: The value was -1.23.

Question: For RRIRIRPPRLPRPRPRPNTYPRP, which “shrunken log2 fold change” value is on record?
Answer: Its value is -1.02.

Question: For RRIRIRPPRLPRPRPRPNVEPRP, which “shrunken log2 fold change” value is on record?
Answer: The value was -0.325.

Question: How did the “shrunken log2 fold change” value turn out when RRIRIRPPRLPRPRPRPNVGPRP was run?
Answer: The value was 0.011.

Question: For RRIRIRPPRLPRPRPRPNVLPRP, which “shrunken log2 fold change” value is on record?
Answer: The value was -0.349.

Question: How did the “shrunken log2 fold change” value turn out when RRIRIRPPRLPRPRPRPNVTPRP was run?
Answer: Its value is -0.149.

Question: For RRIRIRPPRLPRPRPRPNWSPRP, which “shrunken log2 fold change” value is on record?
Answer: Its value is 0.0776.

Question: How did the “shrunken log2 fold change” value turn out when RRIRIRPPRLPRPRPRPNWYPRP was run?
Answer: The value was -0.519.

Question: For RRIRIRPPRLPRPRPRPNYCPRP, which “shrunken log2 fold change” value is on record?
Answer: The value was -0.139.

Question: RRIRIRPPRLPRPRPRPPCAPRP was tested. Which “shrunken log2 fold change” value did it give?
Answer: Its value is 0.201.

Question: With RRIRIRPPRLPRPRPRPPCLPRP as the sequence, how does the “shrunken log2 fold change” value read?
Answer: Its value is -0.122.

Question: RRIRIRPPRLPRPRPRPPFKPRP was tested. Which “shrunken log2 fold change” value did it give?
Answer: The value was 0.228.

Question: For RRIRIRPPRLPRPRPRPPFYPRP, which “shrunken log2 fold change” value is on record?
Answer: Its value is -0.438.

Question: With RRIRIRPPRLPRPRPRPPGDPRP as the sequence, how does the “shrunken log2 fold change” value read?
Answer: The value was -0.0965.

Question: For RRIRIRPPRLPRPRPRPPGEPRP, which “shrunken log2 fold change” value is on record?
Answer: The value was 0.0604.

Question: Which “shrunken log2 fold change” value does the source give for RRIRIRPPRLPRPRPRPPICPRP here?
Answer: The value was -0.132.

Question: With RRIRIRPPRLPRPRPRPPIIPRP as the sequence, how does the “shrunken log2 fold change” value read?
Answer: Its value is -0.0124.

Question: For RRIRIRPPRLPRPRPRPPIMPRP, which “shrunken log2 fold change” value is on record?
Answer: Its value is -0.494.

Question: How did the “shrunken log2 fold change” value turn out when RRIRIRPPRLPRPRPRPPIRPRP was run?
Answer: The value was -0.0314.

Question: For RRIRIRPPRLPRPRPRPPLAPRP, which “shrunken log2 fold change” value is on record?
Answer: Its value is 0.293.

Question: RRIRIRPPRLPRPRPRPPMFPRP was tested. Which “shrunken log2 fold change” value did it give?
Answer: Its value is -0.181.

Question: RRIRIRPPRLPRPRPRPPMIPRP was tested. Which “shrunken log2 fold change” value did it give?
Answer: The value was -0.112.

Question: How did the “shrunken log2 fold change” value turn out when RRIRIRPPRLPRPRPRPPNAPRP was run?
Answer: The value was -0.0573.

Question: RRIRIRPPRLPRPRPRPPNQPRP was tested. Which “shrunken log2 fold change” value did it give?
Answer: The value was -0.0959.

Question: With RRIRIRPPRLPRPRPRPPNSPRP as the sequence, how does the “shrunken log2 fold change” value read?
Answer: Its value is 0.0359.

Question: Which “shrunken log2 fold change” value does the source give for RRIRIRPPRLPRPRPRPPQLPRP here?
Answer: The value was -0.122.

Question: Which “shrunken log2 fold change” value does the source give for RRIRIRPPRLPRPRPRPPRMPRP here?
Answer: The value was 0.21.

Question: With RRIRIRPPRLPRPRPRPPSSPRP as the sequence, how does the “shrunken log2 fold change” value read?
Answer: The value was -0.0293.

Question: Which “shrunken log2 fold change” value does the source give for RRIRIRPPRLPRPRPRPPTTPRP here?
Answer: The value was 0.0744.

Question: With RRIRIRPPRLPRPRPRPPTYPRP as the sequence, how does the “shrunken log2 fold change” value read?
Answer: The value was -0.427.

Question: Which “shrunken log2 fold change” value does the source give for RRIRIRPPRLPRPRPRPPVCPRP here?
Answer: The value was 0.108.

Question: How did the “shrunken log2 fold change” value turn out when RRIRIRPPRLPRPRPRPPVHPRP was run?
Answer: Its value is -0.185.

Question: Which “shrunken log2 fold change” value does the source give for RRIRIRPPRLPRPRPRPPYQPRP here?
Answer: Its value is 2.02.

Question: RRIRIRPPRLPRPRPRPQAEPRP was tested. Which “shrunken log2 fold change” value did it give?
Answer: The value was 0.172.

Question: RRIRIRPPRLPRPRPRPQAGPRP was tested. Which “shrunken log2 fold change” value did it give?
Answer: Its value is -0.16.

Question: Which “shrunken log2 fold change” value does the source give for RRIRIRPPRLPRPRPRPQAQPRP here?
Answer: The value was -0.108.

Question: Which “shrunken log2 fold change” value does the source give for RRIRIRPPRLPRPRPRPQCAPRP here?
Answer: Its value is -0.272.

Question: Which “shrunken log2 fold change” value does the source give for RRIRIRPPRLPRPRPRPQCEPRP here?
Answer: The value was -0.0436.

Question: How did the “shrunken log2 fold change” value turn out when RRIRIRPPRLPRPRPRPQCNPRP was run?
Answer: Its value is -0.0824.

Question: With RRIRIRPPRLPRPRPRPQDLPRP as the sequence, how does the “shrunken log2 fold change” value read?
Answer: Its value is -0.527.

Question: Which “shrunken log2 fold change” value does the source give for RRIRIRPPRLPRPRPRPQFRPRP here?
Answer: Its value is -0.234.

Question: How did the “shrunken log2 fold change” value turn out when RRIRIRPPRLPRPRPRPQFVPRP was run?
Answer: Its value is -0.229.

Question: RRIRIRPPRLPRPRPRPQGTPRP was tested. Which “shrunken log2 fold change” value did it give?
Answer: The value was -0.272.

Question: RRIRIRPPRLPRPRPRPQHPPRP was tested. Which “shrunken log2 fold change” value did it give?
Answer: The value was -0.176.

Question: How did the “shrunken log2 fold change” value turn out when RRIRIRPPRLPRPRPRPQHWPRP was run?
Answer: Its value is 0.112.

Question: RRIRIRPPRLPRPRPRPQHYPRP was tested. Which “shrunken log2 fold change” value did it give?
Answer: Its value is -1.3.

Question: RRIRIRPPRLPRPRPRPQIMPRP was tested. Which “shrunken log2 fold change” value did it give?
Answer: The value was -1.16.

Question: With RRIRIRPPRLPRPRPRPQKSPRP as the sequence, how does the “shrunken log2 fold change” value read?
Answer: Its value is -0.403.

Question: With RRIRIRPPRLPRPRPRPQNNPRP as the sequence, how does the “shrunken log2 fold change” value read?
Answer: Its value is -0.957.

Question: Which “shrunken log2 fold change” value does the source give for RRIRIRPPRLPRPRPRPQNPPRP here?
Answer: The value was -0.38.

Question: For RRIRIRPPRLPRPRPRPQNTPRP, which “shrunken log2 fold change” value is on record?
Answer: Its value is -0.86.

Question: Which “shrunken log2 fold change” value does the source give for RRIRIRPPRLPRPRPRPQRAPRP here?
Answer: The value was -0.249.

Question: How did the “shrunken log2 fold change” value turn out when RRIRIRPPRLPRPRPRPQRTPRP was run?
Answer: Its value is 0.0834.

Question: How did the “shrunken log2 fold change” value turn out when RRIRIRPPRLPRPRPRPQSMPRP was run?
Answer: The value was -0.138.

Question: For RRIRIRPPRLPRPRPRPQSQPRP, which “shrunken log2 fold change” value is on record?
Answer: The value was -0.513.

Question: Which “shrunken log2 fold change” value does the source give for RRIRIRPPRLPRPRPRPQSTPRP here?
Answer: The value was -0.427.

Question: With RRIRIRPPRLPRPRPRPQTWPRP as the sequence, how does the “shrunken log2 fold change” value read?
Answer: The value was -0.169.

Question: With RRIRIRPPRLPRPRPRPQVMPRP as the sequence, how does the “shrunken log2 fold change” value read?
Answer: The value was -0.604.

Question: RRIRIRPPRLPRPRPRPQWEPRP was tested. Which “shrunken log2 fold change” value did it give?
Answer: Its value is -0.0938.

Question: How did the “shrunken log2 fold change” value turn out when RRIRIRPPRLPRPRPRPQWNPRP was run?
Answer: The value was -0.316.

Question: With RRIRIRPPRLPRPRPRPQWRPRP as the sequence, how does the “shrunken log2 fold change” value read?
Answer: Its value is -0.191.

Question: For RRIRIRPPRLPRPRPRPRCKPRP, which “shrunken log2 fold change” value is on record?
Answer: The value was -0.35.

Question: For RRIRIRPPRLPRPRPRPRCQPRP, which “shrunken log2 fold change” value is on record?
Answer: Its value is 0.00087.

Question: Which “shrunken log2 fold change” value does the source give for RRIRIRPPRLPRPRPRPRCSPRP here?
Answer: The value was -0.137.

Question: How did the “shrunken log2 fold change” value turn out when RRIRIRPPRLPRPRPRPREPPRP was run?
Answer: The value was 0.183.

Question: Which “shrunken log2 fold change” value does the source give for RRIRIRPPRLPRPRPRPREQPRP here?
Answer: Its value is 0.198.

Question: Which “shrunken log2 fold change” value does the source give for RRIRIRPPRLPRPRPRPRFDPRP here?
Answer: Its value is -0.282.

Question: Which “shrunken log2 fold change” value does the source give for RRIRIRPPRLPRPRPRPRFVPRP here?
Answer: The value was -0.104.

Question: How did the “shrunken log2 fold change” value turn out when RRIRIRPPRLPRPRPRPRFYPRP was run?
Answer: Its value is -0.124.

Question: For RRIRIRPPRLPRPRPRPRGVPRP, which “shrunken log2 fold change” value is on record?
Answer: Its value is 0.0556.

Question: How did the “shrunken log2 fold change” value turn out when RRIRIRPPRLPRPRPRPRHPPRP was run?
Answer: The value was -0.0642.

Question: For RRIRIRPPRLPRPRPRPRIAPRP, which “shrunken log2 fold change” value is on record?
Answer: Its value is -0.0281.
